Assay results as given in the Human Domainome abundance scans (Beltran et al. 2025).
± gives the uncertainty stated by the source.

B1: GAS2-like protein 1, residues 209 to 276; numbered along this chain, Q99501 (parent)
chain: DELVREILGRCTCPDQFPMIKVSEGKYRVGDSSLLIFVRVLRSHVMVRVGGGWDTLEHYLDKHDPCRC

Variants of: B1
Assay: abundance fitness (aPCA) (normalised: wild type 0, dead -1); higher = more abundant; growth selection in yeast, the domain comes from the species named
Conditions: Homo sapiens

Variant | abundance fitness
DELVREILGRCTCPDQFPMIKYSEGKYRVGDSSLLIFVRVLRSHVMVRVGGGWDTLEHYLDKHDPCRC | -0.795 ± 0.14
DELVREILGRCTCPDQFPMIKVAEGKYRVGDSSLLIFVRVLRSHVMVRVGGGWDTLEHYLDKHDPCRC | -0.023 ± 0.048
DELVREILGRCTCPDQFPMIKVCEGKYRVGDSSLLIFVRVLRSHVMVRVGGGWDTLEHYLDKHDPCRC | -0.031 ± 0.088
DELVREILGRCTCPDQFPMIKVDEGKYRVGDSSLLIFVRVLRSHVMVRVGGGWDTLEHYLDKHDPCRC | 0.028 ± 0.05
DELVREILGRCTCPDQFPMIKVEEGKYRVGDSSLLIFVRVLRSHVMVRVGGGWDTLEHYLDKHDPCRC | 0.099 ± 0.062
DELVREILGRCTCPDQFPMIKVFEGKYRVGDSSLLIFVRVLRSHVMVRVGGGWDTLEHYLDKHDPCRC | -0.83 ± 0.24
DELVREILGRCTCPDQFPMIKVGEGKYRVGDSSLLIFVRVLRSHVMVRVGGGWDTLEHYLDKHDPCRC | 0.013 ± 0.045
DELVREILGRCTCPDQFPMIKVHEGKYRVGDSSLLIFVRVLRSHVMVRVGGGWDTLEHYLDKHDPCRC | -0.325 ± 0.058
DELVREILGRCTCPDQFPMIKVIEGKYRVGDSSLLIFVRVLRSHVMVRVGGGWDTLEHYLDKHDPCRC | -0.861 ± 0.2
DELVREILGRCTCPDQFPMIKVKEGKYRVGDSSLLIFVRVLRSHVMVRVGGGWDTLEHYLDKHDPCRC | -0.336 ± 0.079
DELVREILGRCTCPDQFPMIKVLEGKYRVGDSSLLIFVRVLRSHVMVRVGGGWDTLEHYLDKHDPCRC | -0.809 ± 0.079
DELVREILGRCTCPDQFPMIKVMEGKYRVGDSSLLIFVRVLRSHVMVRVGGGWDTLEHYLDKHDPCRC | -0.47 ± 0.064
DELVREILGRCTCPDQFPMIKVNEGKYRVGDSSLLIFVRVLRSHVMVRVGGGWDTLEHYLDKHDPCRC | -0.483 ± 0.15
DELVREILGRCTCPDQFPMIKVPEGKYRVGDSSLLIFVRVLRSHVMVRVGGGWDTLEHYLDKHDPCRC | -0.914 ± 0.12
DELVREILGRCTCPDQFPMIKVQEGKYRVGDSSLLIFVRVLRSHVMVRVGGGWDTLEHYLDKHDPCRC | -0.141 ± 0.089
DELVREILGRCTCPDQFPMIKVREGKYRVGDSSLLIFVRVLRSHVMVRVGGGWDTLEHYLDKHDPCRC | -0.359 ± 0.062
DELVREILGRCTCPDQFPMIKVTEGKYRVGDSSLLIFVRVLRSHVMVRVGGGWDTLEHYLDKHDPCRC | -0.036 ± 0.057
DELVREILGRCTCPDQFPMIKVVEGKYRVGDSSLLIFVRVLRSHVMVRVGGGWDTLEHYLDKHDPCRC | -0.674 ± 0.073
DELVREILGRCTCPDQFPMIKVWEGKYRVGDSSLLIFVRVLRSHVMVRVGGGWDTLEHYLDKHDPCRC | -0.53 ± 0.11
DELVREILGRCTCPDQFPMIKVSAGKYRVGDSSLLIFVRVLRSHVMVRVGGGWDTLEHYLDKHDPCRC | -0.099 ± 0.085

Variant | abundance fitness
DELVREILGRCTCPDQFPMIKVSCGKYRVGDSSLLIFVRVLRSHVMVRVGGGWDTLEHYLDKHDPCRC | -0.588 ± 0.25
DELVREILGRCTCPDQFPMIKVSDGKYRVGDSSLLIFVRVLRSHVMVRVGGGWDTLEHYLDKHDPCRC | 0.062 ± 0.12
DELVREILGRCTCPDQFPMIKVSHGKYRVGDSSLLIFVRVLRSHVMVRVGGGWDTLEHYLDKHDPCRC | -0.193 ± 0.22
DELVREILGRCTCPDQFPMIKVSLGKYRVGDSSLLIFVRVLRSHVMVRVGGGWDTLEHYLDKHDPCRC | -0.715 ± 0.19
DELVREILGRCTCPDQFPMIKVSPGKYRVGDSSLLIFVRVLRSHVMVRVGGGWDTLEHYLDKHDPCRC | -0.246 ± 0.12
DELVREILGRCTCPDQFPMIKVSQGKYRVGDSSLLIFVRVLRSHVMVRVGGGWDTLEHYLDKHDPCRC | 0.041 ± 0.15
DELVREILGRCTCPDQFPMIKVSRGKYRVGDSSLLIFVRVLRSHVMVRVGGGWDTLEHYLDKHDPCRC | -0.417 ± 0.075
DELVREILGRCTCPDQFPMIKVSSGKYRVGDSSLLIFVRVLRSHVMVRVGGGWDTLEHYLDKHDPCRC | -0.254 ± 0.084
DELVREILGRCTCPDQFPMIKVSTGKYRVGDSSLLIFVRVLRSHVMVRVGGGWDTLEHYLDKHDPCRC | -0.579 ± 0.47
DELVREILGRCTCPDQFPMIKVSVGKYRVGDSSLLIFVRVLRSHVMVRVGGGWDTLEHYLDKHDPCRC | -0.505 ± 0.12
DELVREILGRCTCPDQFPMIKVSWGKYRVGDSSLLIFVRVLRSHVMVRVGGGWDTLEHYLDKHDPCRC | -0.422 ± 0.14
DELVREILGRCTCPDQFPMIKVSECKYRVGDSSLLIFVRVLRSHVMVRVGGGWDTLEHYLDKHDPCRC | -0.236 ± 0.098
DELVREILGRCTCPDQFPMIKVSEDKYRVGDSSLLIFVRVLRSHVMVRVGGGWDTLEHYLDKHDPCRC | -0.07 ± 0.082
DELVREILGRCTCPDQFPMIKVSEEKYRVGDSSLLIFVRVLRSHVMVRVGGGWDTLEHYLDKHDPCRC | -0.345 ± 0.079
DELVREILGRCTCPDQFPMIKVSEFKYRVGDSSLLIFVRVLRSHVMVRVGGGWDTLEHYLDKHDPCRC | -0.366 ± 0.098
DELVREILGRCTCPDQFPMIKVSEIKYRVGDSSLLIFVRVLRSHVMVRVGGGWDTLEHYLDKHDPCRC | -1.07 ± 0.18
DELVREILGRCTCPDQFPMIKVSEKKYRVGDSSLLIFVRVLRSHVMVRVGGGWDTLEHYLDKHDPCRC | -0.739 ± 0.25
DELVREILGRCTCPDQFPMIKVSELKYRVGDSSLLIFVRVLRSHVMVRVGGGWDTLEHYLDKHDPCRC | -0.914 ± 0.091
DELVREILGRCTCPDQFPMIKVSENKYRVGDSSLLIFVRVLRSHVMVRVGGGWDTLEHYLDKHDPCRC | -0.116 ± 0.11
DELVREILGRCTCPDQFPMIKVSEPKYRVGDSSLLIFVRVLRSHVMVRVGGGWDTLEHYLDKHDPCRC | -0.809 ± 0.19
